{"source": "patent US11034762", "about": "(CENTIVAX, dated 2021)", "binders": {"B1": {"name": "COVID19_P09_C05 (scFv, V domains shown)", "VH": "QVQLVQSGAEVKKPGSSVKVSCKASGYSFSDYYIHWVRQAPGQGLEWMGWIDPNSGGTNYAQKFQGRVTITADESTSTAYMELSSLRSEDTAVYYCAGGSGISTPMDVWGQGTLVTVSS", "VL": "not shown"}, "B2": {"name": "COVID19_P09_B10 (scFv, V domains shown)", "VH": "B1 VH with S30T, Y33H, G49A, W50M, D52V, N54R, S55G, G57S, N59T", "VL": "not shown"}, "B3": {"name": "COVID19_P21_B01 (scFv, V domains shown)", "VH": "B1 VH with S28T, D31T, Y33W, H35G", "VL": "not shown"}, "B4": {"name": "COVID19_P10_B08 (scFv, V domains shown)", "VH": "B1 VH with Y27G, S28G, S30I, D31T, Y33W, H35G, D52N, N59K, M106I", "VL": "not shown"}, "B5": {"name": "COVID19_P10_B10 (scFv, V domains shown)", "VH": "B1 VH with Y33H, I34V, M48V, W50M, D52I, N54R, S55H, N59A", "VL": "not shown"}, "B6": {"name": "COVID19_P21_A03 (scFv, V domains shown)", "VH": "QVQLVQSGAEVKKPGSSVKVSCKASGGTFSNNGLSWVRQAPGQGLEWMGGIIPIFGTANYAQKFQGRVTITADESTSTAYMELSSLRSEDTAVYYCRMGSGISTPMDVWGQGTLVTVSS", "VL": "not shown"}, "B7": {"name": "COVID19_P21_A05 (scFv, V domains shown)", "VH": "QVQLVQSGAEVKKPGSSVKVSCKASGGGFITYWIGWVRQAPGQGLEWMGIIYPGDGETRYSQKFQGRVTITADESTSTAYMELSSLRSEDTAVYYCAGGSGISTPMDVWGQGTLVTVSS", "VL": "not shown"}, "B8": {"name": "COVID19_P21_A04 (scFv, V domains shown)", "VH": "B7 VH with G27Y, G56S, I102L, S103L", "VL": "not shown"}, "B9": {"name": "COVID19_P09_G05 (scFv, V domains shown)", "VH": "B7 VH with G27Y, G28T, I30T, T31G, Y32H, W33Y, I34M, G35H, G56S, T58A", "VL": "not shown"}, "B10": {"name": "COVID19_P21_F02 (scFv, V domains shown)", "VH": "B7 VH with G27Y, G28T, I30T, T31S, W33G, G35S, E57T, A97L, G98P", "VL": "not shown"}, "B11": {"name": "COVID19_P21_B11 (scFv, V domains shown)", "VH": "B7 VH with G27Y, G56S, G99S, S100D", "VL": "not shown"}, "B12": {"name": "COVID19_P21_C09 (scFv, V domains shown)", "VH": "B7 VH with G27Y, T31S, G56S, S103L, T104E", "VL": "not shown"}, "B13": {"name": "COVID19_P09_G04 (scFv, V domains shown)", "VH": "B7 VH with G27Y, G56S, R59N, I102L, S103F", "VL": "not shown"}, "B14": {"name": "COVID19_P10_B04 (scFv, V domains shown)", "VH": "B7 VH with G27Y, T31S, G99S, S100D", "VL": "not shown"}, "B15": {"name": "COVID19_P21_H02 (scFv, V domains shown)", "VH": "B7 VH with G27Y, G56S, S61A, I102L, S103Y", "VL": "not shown"}, "B16": {"name": "COVID19_P22_F11 (scFv, V domains shown)", "VH": "B7 VH with G35S, T58A, S103I, T104Q", "VL": "not shown"}, "B17": {"name": "COVID19_P22_E10 (scFv, V domains shown)", "VH": "B7 VH", "VL": "not shown"}, "B18": {"name": "COVID19_P21_E08 (scFv, V domains shown)", "VH": "B7 VH with G27Y", "VL": "not shown"}, "B19": {"name": "COVID19_P22_D06 (scFv, V domains shown)", "VH": "B7 VH with G56S, I102V, S103L", "VL": "not shown"}, "B20": {"name": "COVID19_P21_E07 (scFv, V domains shown)", "VH": "B7 VH with G27Y, G56S", "VL": "not shown"}, "B21": {"name": "COVID19_P09_C08 (scFv, V domains shown)", "VH": "B7 VH with G27Y, G56S, S61A", "VL": "not shown"}, "B22": {"name": "COVID19_P21_A10 (scFv, V domains shown)", "VH": "B7 VH with G27Y, T58A", "VL": "not shown"}, "B23": {"name": "COVID19_P09_G12 (scFv, V domains shown)", "VH": "QVQLVQSGAEVKKPGSSVKVSCKASGYPFTNYGISWVRQAPGQGLEWMGWMNPNSGNTGYAQKFQGRVTITADESTSTAYMELSSLRSEDTAVYYCATLSGISTPMDVWGQGTLVTVSS", "VL": "not shown"}, "B24": {"name": "COVID19_P09_B09 (scFv, V domains shown)", "VH": "QVQLVQSGAEVKKPGSSVKVSCKASGYRFTDYHLHWVRQAPGQGLEWMGGIVPFSGTTNFAQKFQGRVTITADESTSTAYMELSSLRSEDTAVYYCAGGSGETTPMDVWGQGTLVTVSS", "VL": "not shown"}, "B25": {"name": "COVID19_P21_B12 (scFv, V domains shown)", "VH": "QVQLVQSGAEVKKPGSSVKVSCKASGGTFSSYAISWVRQAPGQGLEWMGMINPGGGNTNYAEKFQGRVTITADESTSTAYMELSSLRSEDTAVYYCAGEWGISTPMDVWGQGTLVTVSS", "VL": "not shown"}}, "note": "Changes are numbered by the printed parent chain.", "data": [{"biological_target": "SARS-CoV-2 Receptor Binding Domain (RBD) protein (SARS-CoV-2, UniProt P0DTC2 319-541)", "test": "not given", "units": {"Kd": "nM", "koff": "s⁻¹", "kon": "M⁻¹ s⁻¹"}, "values": [{"binder": "B1", "Kd": 1.18, "koff": 0.000185, "kon": 157000}, {"binder": "B2", "Kd": 39.7, "koff": 0.00323, "kon": 81400}, {"binder": "B3", "Kd": 0.91, "koff": "5.7e-05", "kon": 62400}, {"binder": "B4", "Kd": 41.3, "koff": 0.0217, "kon": 527000}, {"binder": "B5", "Kd": 46.2, "koff": 0.014, "kon": 302000}, {"binder": "B6", "Kd": 20.6, "koff": 0.000858, "kon": 41700}, {"binder": "B7", "Kd": 41.2, "koff": 0.0173, "kon": 419000}, {"binder": "B8", "Kd": 35, "koff": 0.0143, "kon": 409000}, {"binder": "B9", "Kd": 11.3, "koff": 0.000482, "kon": 42600}, {"binder": "B10", "Kd": 26.8, "koff": 0.000679, "kon": 25400}, {"binder": "B11", "Kd": 26.3, "koff": 0.0166, "kon": 631000}, {"binder": "B12", "Kd": 28.5, "koff": 0.0157, "kon": 551000}, {"binder": "B13", "Kd": 6.18, "koff": 0.00381, "kon": 616000}, {"binder": "B14", "Kd": 36.2, "koff": 0.0223, "kon": 614000}, {"binder": "B15", "Kd": 40.3, "koff": 0.0124, "kon": 308000}, {"binder": "B16", "Kd": 23.3, "koff": 0.0093, "kon": 400000}, {"binder": "B17", "Kd": 25.3, "koff": 0.0058, "kon": 230000}, {"binder": "B18", "Kd": 32.8, "koff": 0.0142, "kon": 434000}, {"binder": "B19", "Kd": 30.5, "koff": 0.012, "kon": 410000}, {"binder": "B20", "Kd": 41, "koff": 0.0155, "kon": 378000}, {"binder": "B21", "Kd": 28.7, "koff": 0.0131, "kon": 458000}, {"binder": "B22", "Kd": 46.2, "koff": 0.00729, "kon": 158000}, {"binder": "B23", "Kd": 0.4, "koff": 0.000363, "kon": 828000}, {"binder": "B24", "Kd": 22.9, "koff": 0.000507, "kon": 22100}, {"binder": "B25", "Kd": 37.6, "koff": 0.0104, "kon": 276000}]}, {"biological_target": "T1, SARS-CoV-1 Receptor Binding Domain (RBD) protein (SARS-CoV-1, UniProt P59594 306-527)", "T1 construct": "also called SARS1", "test": "SPR; clone listed as COV2 only at the 21st table, row 11, column 3", "values": [{"binder": "B16", "binding result": "no binding (tested: up to 300 nM)"}]}, {"biological_target": "T2, MERS Receptor Binding Domain (RBD) protein (MERS virus, UniProt K9N5Q8 367-606)", "T2 construct": "also called Middle East Respiratory Syndrome (MERS) virus", "T2 sequence": "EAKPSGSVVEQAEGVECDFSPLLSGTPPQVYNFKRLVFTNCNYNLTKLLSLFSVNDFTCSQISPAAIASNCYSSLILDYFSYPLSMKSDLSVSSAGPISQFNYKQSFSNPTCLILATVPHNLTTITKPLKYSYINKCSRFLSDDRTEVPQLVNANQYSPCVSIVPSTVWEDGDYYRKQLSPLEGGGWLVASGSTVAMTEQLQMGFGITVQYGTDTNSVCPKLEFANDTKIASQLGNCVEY", "test": "SPR; clone listed as COV2 only at the 21st table, row 11, column 3", "values": [{"binder": "B16", "binding result": "no binding (tested: up to 300 nM)"}]}, {"biological_target": "T1, SARS-CoV-1 Receptor Binding Domain …", "test": "SPR; clone listed as COV2 only at the 21st table, row 53, column 3", "values": [{"binder": "B23", "binding result": "no binding (tested: up to 300 nM)"}]}, {"biological_target": "T2, MERS Receptor Binding Domain (RBD) …", "test": "SPR; clone listed as COV2 only at the 21st table, row 53, column 3", "values": [{"binder": "B23", "binding result": "no binding (tested: up to 300 nM)"}]}, {"biological_target": "T1, SARS-CoV-1 Receptor Binding Domain …", "test": "SPR; clone listed as COV2 only at the 21st table, row 55, column 3", "values": [{"binder": "B24", "binding result": "no binding (tested: up to 300 nM)"}]}, {"biological_target": "T2, MERS Receptor Binding Domain (RBD) …", "test": "SPR; clone listed as COV2 only at the 21st table, row 55, column 3", "values": [{"binder": "B24", "binding result": "no binding (tested: up to 300 nM)"}]}, {"biological_target": "T1, SARS-CoV-1 Receptor Binding Domain …", "test": "SPR; clone listed as COV2 only at the 21st table, row 56, column 3", "values": [{"binder": "B5", "binding result": "no binding (tested: up to 300 nM)"}]}, {"biological_target": "T2, MERS Receptor Binding Domain (RBD) …", "test": "SPR; clone listed as COV2 only at the 21st table, row 56, column 3", "values": [{"binder": "B5", "binding result": "no binding (tested: up to 300 nM)"}]}, {"biological_target": "T1, SARS-CoV-1 Receptor Binding Domain …", "test": "SPR; clone listed as COV2 only at the 21st table, row 57, column 3", "values": [{"binder": "B1", "binding result": "no binding (tested: up to 300 nM)"}]}, {"biological_target": "T2, MERS Receptor Binding Domain (RBD) …", "test": "SPR; clone listed as COV2 only at the 21st table, row 57, column 3", "values": [{"binder": "B1", "binding result": "no binding (tested: up to 300 nM)"}]}, {"biological_target": "T1, SARS-CoV-1 Receptor Binding Domain …", "test": "SPR; clone listed as COV2 only at the 21st table, row 58, column 3", "values": [{"binder": "B2", "binding result": "no binding (tested: up to 300 nM)"}]}, {"biological_target": "T2, MERS Receptor Binding Domain (RBD) …", "test": "SPR; clone listed as COV2 only at the 21st table, row 58, column 3", "values": [{"binder": "B2", "binding result": "no binding (tested: up to 300 nM)"}]}, {"biological_target": "T1, SARS-CoV-1 Receptor Binding Domain …", "test": "SPR; clone listed as COV2 only at the 21st table, row 59, column 3", "values": [{"binder": "B3", "binding result": "no binding (tested: up to 300 nM)"}]}, {"biological_target": "T2, MERS Receptor Binding Domain (RBD) …", "test": "SPR; clone listed as COV2 only at the 21st table, row 59, column 3", "values": [{"binder": "B3", "binding result": "no binding (tested: up to 300 nM)"}]}]}
